Laboratory results published in paper PMC6555819, “Comprehensive study of nuclear receptor DNA binding provides a revised framework for understanding receptor specificity”.
Where a chain is given by its changes, count along the chain named.

B1: NRC3_wobSeed133_DR5_A14C_o1 (dsDNA)
DNA 1: GCCGTCCAAGGTCCATGCTAGGTCAGTGAAAGCATTGCGATTGACAGCGTAGAATGAAGG
DNA 2: CCTTCATTCTACGCTGTCAATCGCAATGCTTTCACTGACCTAGCATGGACCTTGGACGGC
B2: NRC3_wobSeed15_DR0_G10T_o1 (dsDNA)
DNA 1: GCCGAACTATGTCAAGGACAGTGAATCTCCGCACGCGCGATTGACAGCGTAGAATGAAGG
DNA 2: CCTTCATTCTACGCTGTCAATCGCGCGTGCGGAGATTCACTGTCCTTGACATAGTTCGGC
B3: NRC3_random_hg19_367_o1 (dsDNA)
DNA 1: GCATCTGTGTAACCAGCACCACAGTTAAGATACAGAGCGATTGACAGCGTAGAATGAAGG
DNA 2: CCTTCATTCTACGCTGTCAATCGCTCTGTATCTTAACTGTGGTGCTGGTTACACAGATGC
B4: NRC3_random_hg19_303_o1 (dsDNA)
DNA 1: GCAAGATCTCTACAATGAATTGTACCAATGCTCCAGGCGATTGACAGCGTAGAATGAAGG
DNA 2: CCTTCATTCTACGCTGTCAATCGCCTGGAGCATTGGTACAATTCATTGTAGAGATCTTGC
B5: NRC3_wobSeed99_DR4_G20A_o1 (dsDNA)
DNA 1: GCTCTCGGAGGACACGAAAAGTCAGAGCTCGACATCGCGATTGACAGCGTAGAATGAAGG
DNA 2: CCTTCATTCTACGCTGTCAATCGCGATGTCGAGCTCTGACTTTTCGTGTCCTCCGAGAGC
B6: NRC3_random_hg19_172_o1 (dsDNA)
DNA 1: GCCAGTACTGTTGCTAGAACTACAACCTGTATGCTGGCGATTGACAGCGTAGAATGAAGG
DNA 2: CCTTCATTCTACGCTGTCAATCGCCAGCATACAGGTTGTAGTTCTAGCAACAGTACTGGC
B7: NRC3_random_hg19_188_o1 (dsDNA)
DNA 1: GCGCTAGGATTACAGGCACAAGCCACCGTGCCCAGCGCGATTGACAGCGTAGAATGAAGG
DNA 2: CCTTCATTCTACGCTGTCAATCGCGCTGGGCACGGTGGCTTGTGCCTGTAATCCTAGCGC
B8: NRC3_wobSeed122_DR5_A20T_o1 (dsDNA)
DNA 1: GCGCTAGTTGGTCAGTAAATGGTCACACACCGGTCGGCGATTGACAGCGTAGAATGAAGG
DNA 2: CCTTCATTCTACGCTGTCAATCGCCGACCGGTGTGTGACCATTTACTGACCAACTAGCGC
B9: NRC3_wobSeed44_DR1_A14T_o1 (dsDNA)
DNA 1: GCTGAATGAGGTTTAAGATCAGGGAACGTGGCGTCGGCGATTGACAGCGTAGAATGAAGG
DNA 2: CCTTCATTCTACGCTGTCAATCGCCGACGCCACGTTCCCTGATCTTAAACCTCATTCAGC
B10: NRC3_wobSeed49_DR2_G25C_o1 (dsDNA)
DNA 1: GCCAAACTAGGTCAAGAGGTCAAACTCCGCTTCCCGGCGATTGACAGCGTAGAATGAAGG
DNA 2: CCTTCATTCTACGCTGTCAATCGCCGGGAAGCGGAGTTTGACCTCTTGACCTAGTTTGGC
B11: NRC3_random_hg19_239_o1 (dsDNA)
DNA 1: GCATACATAAGGTGATTTGGCTACATGTATAGACAGGCGATTGACAGCGTAGAATGAAGG
DNA 2: CCTTCATTCTACGCTGTCAATCGCCTGTCTATACATGTAGCCAAATCACCTTATGTATGC
B12: NRC3_wobSeed40_DR1_G10A_o1 (dsDNA)
DNA 1: GCTAGCCTAAGTCATGGGCCAGTATACCACGCGAACGCGATTGACAGCGTAGAATGAAGG
DNA 2: CCTTCATTCTACGCTGTCAATCGCGTTCGCGTGGTATACTGGCCCATGACTTAGGCTAGC
B13: NRC3_wobSeed101_DR4_A14T_o1 (dsDNA)
DNA 1: GCCCTTACGGGTCTCTCCAGGTTATAGCATCGGAGTGCGATTGACAGCGTAGAATGAAGG
DNA 2: CCTTCATTCTACGCTGTCAATCGCACTCCGATGCTATAACCTGGAGAGACCCGTAAGGGC
B14: NRC3_random_hg19_326_o1 (dsDNA)
DNA 1: GCATCAGGTCTGCACCTGCAGATGGCGAGGGTTGGCGCGATTGACAGCGTAGAATGAAGG
DNA 2: CCTTCATTCTACGCTGTCAATCGCGCCAACCCTCGCCATCTGCAGGTGCAGACCTGATGC
B15: NRC3_wobSeed121_DR5_A6C_o1 (dsDNA)
DNA 1: GCCAACCTAGGTCACCGGAAGGTCAAAGTCCGCATGGCGATTGACAGCGTAGAATGAAGG
DNA 2: CCTTCATTCTACGCTGTCAATCGCCATGCGGACTTTGACCTTCCGGTGACCTAGGTTGGC
B16: NRC3_random_hg19_44_o1 (dsDNA)
DNA 1: GCATTTGAGATCTCAGTTTCTGCATACTGAATCACCGCGATTGACAGCGTAGAATGAAGG
DNA 2: CCTTCATTCTACGCTGTCAATCGCGGTGATTCAGTATGCAGAAACTGAGATCTCAAATGC
B17: NRC3_wobSeed134_DR5_A14G_o1 (dsDNA)
DNA 1: GCGCTGCTAGGTCGACTGATGGTCAGCTAAAGCTCGGCGATTGACAGCGTAGAATGAAGG
DNA 2: CCTTCATTCTACGCTGTCAATCGCCGAGCTTTAGCTGACCATCAGTCGACCTAGCAGCGC
B18: NRC3_wobSeed47_DR1_G11C_o1 (dsDNA)
DNA 1: GCGGAACGAGCGCAAAGTTGATAGCATCTGTCGACGGCGATTGACAGCGTAGAATGAAGG
DNA 2: CCTTCATTCTACGCTGTCAATCGCCGTCGACAGATGCTATCAACTTTGCGCTCGTTCCGC
B19: NRC3_random_hg19_330_o1 (dsDNA)
DNA 1: GCAGACTTTGCATCCTGCTGAGAACTGCTCTGAGAGGCGATTGACAGCGTAGAATGAAGG
DNA 2: CCTTCATTCTACGCTGTCAATCGCCTCTCAGAGCAGTTCTCAGCAGGATGCAAAGTCTGC
B20: NRC3_random_hg19_99_o1 (dsDNA)
DNA 1: GCTGTTCTTACTGAGGCGTTTGCTGCCTAGCTCCCTGCGATTGACAGCGTAGAATGAAGG
DNA 2: CCTTCATTCTACGCTGTCAATCGCAGGGAGCTAGGCAGCAAACGCCTCAGTAAGAACAGC
B21: NRC3_wobSeed38_DR1_G11T_o1 (dsDNA)
DNA 1: GCCCTGCTAGTTCAATGGTCAGCTAAAGCAGCTCGCGCGATTGACAGCGTAGAATGAAGG
DNA 2: CCTTCATTCTACGCTGTCAATCGCGCGAGCTGCTTTAGCTGACCATTGAACTAGCAGGGC
B22: NRC3_wobSeed38_DR1_A9C_o1 (dsDNA)
DNA 1: B21 DNA 1 with A9C, T11G
DNA 2: B21 DNA 2 with A50C, T52G
B23: NRC3_wobSeed25_DR1_G24C_o1 (dsDNA)
DNA 1: GCCAAACTAGGTCAAAGGTCAAACTCGAGCCAACCAGCGATTGACAGCGTAGAATGAAGG
DNA 2: CCTTCATTCTACGCTGTCAATCGCTGGTTGGCTCGAGTTTGACCTTTGACCTAGTTTGGC
B24: NRC3_wobSeed90_DR3_C13A_o1 (dsDNA)
DNA 1: GCCATACAGGGTAAGCTAGGCCAGAGTAGGGACGGCGCGATTGACAGCGTAGAATGAAGG
DNA 2: CCTTCATTCTACGCTGTCAATCGCGCCGTCCCTACTCTGGCCTAGCTTACCCTGTATGGC
B25: NRC3_random_hg19_473_o1 (dsDNA)
DNA 1: GCGCTACTCGGGAGGCTGAGGCAGGAGAATGGTGTGGCGATTGACAGCGTAGAATGAAGG
DNA 2: CCTTCATTCTACGCTGTCAATCGCCACACCATTCTCCTGCCTCAGCCTCCCGAGTAGCGC
B26: NRC3_random_hg19_221_o1 (dsDNA)
DNA 1: GCCTTGAATCCAGGAGGCAGAGGCTGCAGTGAGCTGGCGATTGACAGCGTAGAATGAAGG
DNA 2: CCTTCATTCTACGCTGTCAATCGCCAGCTCACTGCAGCCTCTGCCTCCTGGATTCAAGGC
B27: NRC3_wobSeed61_DR2_G11C_o1 (dsDNA)
DNA 1: GCCGTCCAAGCTCAGCAGGTCAGTGAAAGCGACGTGGCGATTGACAGCGTAGAATGAAGG
DNA 2: CCTTCATTCTACGCTGTCAATCGCCACGTCGCTTTCACTGACCTGCTGAGCTTGGACGGC
B28: NRC3_random_hg19_167_o1 (dsDNA)
DNA 1: GCTTTGAAGACACTGAAGGAGTGAGCCATTTGGATCGCGATTGACAGCGTAGAATGAAGG
DNA 2: CCTTCATTCTACGCTGTCAATCGCGATCCAAATGGCTCACTCCTTCAGTGTCTTCAAAGC
B29: NRC3_wobSeed14_DR0_G11T_o1 (dsDNA)
DNA 1: GCCCTGCTAGTTCATGGTCAGCTAATCTACAGTATGGCGATTGACAGCGTAGAATGAAGG
DNA 2: CCTTCATTCTACGCTGTCAATCGCCATACTGTAGATTAGCTGACCATGAACTAGCAGGGC
B30: NRC3_random_hg19_200_o1 (dsDNA)
DNA 1: GCGCAGGAGAATCAGGCAGGGAGGTTGCAGTGAGCCGCGATTGACAGCGTAGAATGAAGG
DNA 2: CCTTCATTCTACGCTGTCAATCGCGGCTCACTGCAACCTCCCTGCCTGATTCTCCTGCGC
B31: NRC3_random_hg19_483_o1 (dsDNA)
DNA 1: GCGAATGGAATAGAGTGGAATGCAGTGGAATGGAAAGCGATTGACAGCGTAGAATGAAGG
DNA 2: CCTTCATTCTACGCTGTCAATCGCTTTCCATTCCACTGCATTCCACTCTATTCCATTCGC
B32: NRC3_wobSeed64_DR2_A9C_o1 (dsDNA)
DNA 1: GCTAGCCTCGGTCATTGGGCCAGTATAGTACGCATCGCGATTGACAGCGTAGAATGAAGG
DNA 2: CCTTCATTCTACGCTGTCAATCGCGATGCGTACTATACTGGCCCAATGACCGAGGCTAGC

How the values were obtained:
PPARa:RXRa = PPARa:RXRa (Homo sapiens, UniProt Q07869;P19793 full;full); assay: no ligand; PBM; 270 nM : 90 nM RXRa; PBS pH 7.4, 2% milk, 0.02% Triton X-100, 1 mM DTT, BSA, 0.4 mg/ml salmon testes DNA; conditions: tags: GST kept;His cleaved; copies: 1;1; label: surface-attached array probe
How it was run: (§1)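 Ligand-free nuclear receptor dimers were bound for 1 h to custom Agilent 4×180K protein-binding microarrays. Detection used antibodies against each partner (one per run). Binding z-scores rest on regression-normalized fluorescence, with random background probes as the reference.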

RARg:RXRa = RARg:RXRa (Homo sapiens, UniProt P13631;P19793 full;full); assay: as above; conditions: tags: His kept;His cleaved; copies: 1;1; label: surface-attached array probe
How it was run: as §1

Chain of RARg:RXRa (P13631 whole entry, chain 1 of 2): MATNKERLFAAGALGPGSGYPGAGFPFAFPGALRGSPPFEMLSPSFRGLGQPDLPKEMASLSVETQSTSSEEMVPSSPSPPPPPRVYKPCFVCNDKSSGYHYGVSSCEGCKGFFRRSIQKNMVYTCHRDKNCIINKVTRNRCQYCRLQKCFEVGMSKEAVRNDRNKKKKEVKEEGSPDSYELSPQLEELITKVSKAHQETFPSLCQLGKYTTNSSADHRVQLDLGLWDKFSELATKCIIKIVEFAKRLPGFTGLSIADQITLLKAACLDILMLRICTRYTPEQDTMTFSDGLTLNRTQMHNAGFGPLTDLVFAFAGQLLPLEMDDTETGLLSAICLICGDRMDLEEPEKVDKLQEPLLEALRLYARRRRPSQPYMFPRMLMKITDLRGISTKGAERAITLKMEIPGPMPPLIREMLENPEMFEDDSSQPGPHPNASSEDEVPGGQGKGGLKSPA
Chain of RARg:RXRa (P19793 whole entry, chain 2 of 2): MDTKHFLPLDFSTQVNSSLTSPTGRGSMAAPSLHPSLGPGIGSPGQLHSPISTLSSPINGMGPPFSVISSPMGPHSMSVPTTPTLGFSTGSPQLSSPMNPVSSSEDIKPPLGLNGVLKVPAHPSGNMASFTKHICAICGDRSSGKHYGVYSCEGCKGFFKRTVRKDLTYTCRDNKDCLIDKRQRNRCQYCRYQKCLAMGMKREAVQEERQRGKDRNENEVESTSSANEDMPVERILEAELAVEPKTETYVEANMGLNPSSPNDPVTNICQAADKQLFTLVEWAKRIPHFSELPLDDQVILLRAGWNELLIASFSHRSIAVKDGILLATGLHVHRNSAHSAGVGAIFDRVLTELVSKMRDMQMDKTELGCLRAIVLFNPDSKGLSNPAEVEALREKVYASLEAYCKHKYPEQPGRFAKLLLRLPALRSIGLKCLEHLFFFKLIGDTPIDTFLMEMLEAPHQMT
Chain of PPARa:RXRa (Q07869 whole entry, chain 1 of 2): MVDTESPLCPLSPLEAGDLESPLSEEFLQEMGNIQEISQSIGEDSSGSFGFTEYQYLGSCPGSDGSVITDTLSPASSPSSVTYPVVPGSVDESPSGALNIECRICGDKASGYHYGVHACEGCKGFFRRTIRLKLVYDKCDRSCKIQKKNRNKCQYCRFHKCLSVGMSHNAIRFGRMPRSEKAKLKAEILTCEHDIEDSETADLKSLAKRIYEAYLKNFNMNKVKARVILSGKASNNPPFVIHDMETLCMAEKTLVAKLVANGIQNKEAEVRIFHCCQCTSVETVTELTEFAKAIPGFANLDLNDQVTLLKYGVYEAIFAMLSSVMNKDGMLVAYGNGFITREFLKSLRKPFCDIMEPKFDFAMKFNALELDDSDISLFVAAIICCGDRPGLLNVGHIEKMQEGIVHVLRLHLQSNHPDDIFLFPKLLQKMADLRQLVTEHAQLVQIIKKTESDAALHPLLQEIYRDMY
Chain of PPARa:RXRa (P19793 whole entry, chain 2 of 2): as the sequence (P19793 whole entry, chain 2 of 2) above

Row | Binder | binding signal (PPARa:RXRa) | binding signal (RARg:RXRa)
1 | B1 | 0.33 PBM z-score against 500 random probes | 
2 | B2 | 0.36 PBM z-score against 500 random probes | 
3 | B3 | -0.28 PBM z-score against 500 random probes | 
4 | B4 | -0.05 PBM z-score against 500 random probes | 
5 | B5 | 0.36 PBM z-score against 500 random probes | 
6 | B6 | -0.42 PBM z-score against 500 random probes | 
7 | B7 | -0.72 PBM z-score against 500 random probes | 
8 | B8 | 0.26 PBM z-score against 500 random probes | 
9 | B9 | 0.18 PBM z-score against 500 random probes | 
10 | B10 |  | 8.44 PBM z-score against 500 random probes
11 | B11 | 0.32 PBM z-score against 500 random probes | 
12 | B12 | -0.06 PBM z-score against 500 random probes | 
13 | B13 | 0.07 PBM z-score against 500 random probes | 
14 | B14 | -0.67 PBM z-score against 500 random probes | 
15 | B15 |  | 8.94 PBM z-score against 500 random probes
16 | B16 | -0.2 PBM z-score against 500 random probes | 

Row | Binder | binding signal (PPARa:RXRa) | binding signal (RARg:RXRa)
17 | B17 | 0.01 PBM z-score against 500 random probes | 
18 | B18 | 0.32 PBM z-score against 500 random probes | 
19 | B19 | -1.18 PBM z-score against 500 random probes | 
20 | B20 | -0.37 PBM z-score against 500 random probes | 
21 | B21 | 0.22 PBM z-score against 500 random probes | 
22 | B22 | 0.02 PBM z-score against 500 random probes | 
23 | B23 |  | 9.32 PBM z-score against 500 random probes
24 | B24 | -0.35 PBM z-score against 500 random probes | 
25 | B25 | -1.24 PBM z-score against 500 random probes | 
26 | B26 | -0.29 PBM z-score against 500 random probes | 
27 | B27 | 0.35 PBM z-score against 500 random probes | 
28 | B28 | -0.13 PBM z-score against 500 random probes | 
29 | B29 | 0.23 PBM z-score against 500 random probes | 
30 | B30 | -0.47 PBM z-score against 500 random probes | 
31 | B31 | -0.61 PBM z-score against 500 random probes | 
32 | B32 | 0.15 PBM z-score against 500 random probes | 
